Consider 2 molecules from patent US20040242851A1 (published 2004).

For orientation: Kd means the constant that tells how readily two partners part at equilibrium. Lower therefore signals a tighter complex. The term koff denotes the rate constant with which the complex falls apart. A high value points to fast dissociation. As usually defined, the kon is a measure of how fast the partners come together. Higher therefore signals fast association. As usually defined, the EC50 (read off the curve) is the concentration that produces a half-maximal response. Low readings indicate a more potent agent, high ones a less potent agent.

For test [1], the target named is T1, Flt-1-Fc fusion protein (UniProt P17948 27-756, limits assumed).
T1 construct: Bought from R&D Systems; also called immobilized Flt-1; not shown: Fc
T1 sequence (P17948 27-756 limits assumed): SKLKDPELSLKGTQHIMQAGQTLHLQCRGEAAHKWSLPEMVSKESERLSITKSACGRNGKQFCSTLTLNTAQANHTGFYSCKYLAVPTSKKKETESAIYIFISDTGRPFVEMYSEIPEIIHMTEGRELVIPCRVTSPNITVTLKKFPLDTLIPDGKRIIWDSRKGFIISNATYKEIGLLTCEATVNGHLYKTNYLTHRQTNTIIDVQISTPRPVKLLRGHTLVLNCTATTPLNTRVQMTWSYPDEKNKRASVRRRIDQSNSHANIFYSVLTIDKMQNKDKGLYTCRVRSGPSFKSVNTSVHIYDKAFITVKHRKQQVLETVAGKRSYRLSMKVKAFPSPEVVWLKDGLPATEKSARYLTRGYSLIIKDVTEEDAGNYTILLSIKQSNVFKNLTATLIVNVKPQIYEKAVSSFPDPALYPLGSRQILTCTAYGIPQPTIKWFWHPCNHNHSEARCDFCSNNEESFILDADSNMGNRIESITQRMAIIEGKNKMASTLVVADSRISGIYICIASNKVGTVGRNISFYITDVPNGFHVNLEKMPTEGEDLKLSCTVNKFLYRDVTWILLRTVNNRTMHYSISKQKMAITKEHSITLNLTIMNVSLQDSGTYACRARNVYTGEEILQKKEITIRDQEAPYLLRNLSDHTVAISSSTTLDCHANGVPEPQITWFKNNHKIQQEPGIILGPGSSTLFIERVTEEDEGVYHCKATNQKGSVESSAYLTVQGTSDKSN
Nature of the test: BIAcore SPR, Flt-1-Fc immobilized on the chip, antibody injected. As to the method: (§1) The binding kinetics of the diabody and its parent scFv to KDR and Flt-1 were measured using a BIAcore biosensor (Pharmacia Biosensor). KDR-AP or Flt-1-Fc fusion protein was immobilized onto a sensor chip and soluble antibodies were injected at concentrations ranging from 1.5 nM to 100 nM. Sensorgrams were obtained at each concentration and were analyzed with, BIA Evaluation 2.0, a program to determine the rate constants kon and koff. The affinity constant, Kd, was calculated from the ratio of rate constants koff/kon.
(In general: SPR reads the build-up and loss of mass on a sensor chip optically.)

The target of test [2] is T1, Flt-1-Fc fusion protein. Nature of the test: direct binding ELISA on immobilized Flt-1, detection with anti-E tag antibody-HRP, A450. The method, then:
(§2) Two assays were carried out to determine the dual antigen binding capability of the diabody. First, a cross-linking assay was used to investigate whether the diabody is capable of binding both of its target antigens simultaneously. Briefly, the diabody or its parent scFv were first incubated in a 96-well Maxi-sorp microtiter plate (Nunc, Roskilde, Denmark) precoated with Flt-1-Fc fusion protein (1 μg/ml×[…] per well overnight at 4° C.) at room temperature (RT) for 1 h. The plate was washed three times with PBS containing 0.1% Tween (PBST), followed by incubation with KDR-AP fusion protein at RT for additional 1 h. The plate-bound KDR-AP was then quantified by the addition of AP substrate, p-nitrophenyl phosphate (Sigma, St. Louis, Mo.), followed by reading of the absorbance at 405 nm (Lu, D. et al., 1999). In the second, direct binding assay, various amounts of diabody or scFv were added to KDR or Flt-1 coated 96-well plates and incubated at RT for 1 h, after which the plates were washed 3 times with PBST. The plates were then incubated at RT for 1 h with 100 μl of an anti-E tag antibody-HRP conjugate (Amersham Pharmacia Biotech). The plates were washed, peroxidase substrate added, and the absorbance at 450 nm read following the procedure described previously (Lu, D. et al., 1999).
(§3) The antigen binding efficiency of the diabody was determined on immobilized KDR and Flt-1. […]

In test [3] the target is T1, Flt-1-Fc fusion protein. The test can be described thus: blocking ELISA: antibody pre-mixed with Flt-1-Fc, transferred to immobilized PlGF; plate-bound Flt-1-Fc detected with anti-human Fc-HRP, A450. As to the method:
The assays followed previously described protocols (Zhu, Z. et al., 1998; Lu, D. et al., 1999). Briefly, various amounts of the diabody or scFv were mixed with a fixed amount of KDR-AP (100 ng) or Flt-1-Fc fusion protein (50 ng) and incubated at RT for 1 h. The mixture were then transferred to 96-well microtiter plates precoated with VEGF₁₆₅ (200 ng/well) or PlGF (200 ng/well) and incubated at RT for an additional 2 h, after which the plates were washed 5 times with PBS. For the KDR-AP assay, the substrate for AP was added, followed by reading of the absorbance at 405 nm to quantify the plate-bound KDR-AP. For the Flt-1-Fc assay, the plate was incubated with a mouse anti-human Fc-HRP conjugate to quantify the plate-bound Flt-1-Fc.

For test [4], the target named is KDR on human umbilical vein endothelial cells (HUVEC) (human, UniProt P35968 20-1356). The test can be described thus: cell-based or functional assay.
KDR on human umbilical vein endothelial cells (HUVEC), sequence (P35968 20-1356): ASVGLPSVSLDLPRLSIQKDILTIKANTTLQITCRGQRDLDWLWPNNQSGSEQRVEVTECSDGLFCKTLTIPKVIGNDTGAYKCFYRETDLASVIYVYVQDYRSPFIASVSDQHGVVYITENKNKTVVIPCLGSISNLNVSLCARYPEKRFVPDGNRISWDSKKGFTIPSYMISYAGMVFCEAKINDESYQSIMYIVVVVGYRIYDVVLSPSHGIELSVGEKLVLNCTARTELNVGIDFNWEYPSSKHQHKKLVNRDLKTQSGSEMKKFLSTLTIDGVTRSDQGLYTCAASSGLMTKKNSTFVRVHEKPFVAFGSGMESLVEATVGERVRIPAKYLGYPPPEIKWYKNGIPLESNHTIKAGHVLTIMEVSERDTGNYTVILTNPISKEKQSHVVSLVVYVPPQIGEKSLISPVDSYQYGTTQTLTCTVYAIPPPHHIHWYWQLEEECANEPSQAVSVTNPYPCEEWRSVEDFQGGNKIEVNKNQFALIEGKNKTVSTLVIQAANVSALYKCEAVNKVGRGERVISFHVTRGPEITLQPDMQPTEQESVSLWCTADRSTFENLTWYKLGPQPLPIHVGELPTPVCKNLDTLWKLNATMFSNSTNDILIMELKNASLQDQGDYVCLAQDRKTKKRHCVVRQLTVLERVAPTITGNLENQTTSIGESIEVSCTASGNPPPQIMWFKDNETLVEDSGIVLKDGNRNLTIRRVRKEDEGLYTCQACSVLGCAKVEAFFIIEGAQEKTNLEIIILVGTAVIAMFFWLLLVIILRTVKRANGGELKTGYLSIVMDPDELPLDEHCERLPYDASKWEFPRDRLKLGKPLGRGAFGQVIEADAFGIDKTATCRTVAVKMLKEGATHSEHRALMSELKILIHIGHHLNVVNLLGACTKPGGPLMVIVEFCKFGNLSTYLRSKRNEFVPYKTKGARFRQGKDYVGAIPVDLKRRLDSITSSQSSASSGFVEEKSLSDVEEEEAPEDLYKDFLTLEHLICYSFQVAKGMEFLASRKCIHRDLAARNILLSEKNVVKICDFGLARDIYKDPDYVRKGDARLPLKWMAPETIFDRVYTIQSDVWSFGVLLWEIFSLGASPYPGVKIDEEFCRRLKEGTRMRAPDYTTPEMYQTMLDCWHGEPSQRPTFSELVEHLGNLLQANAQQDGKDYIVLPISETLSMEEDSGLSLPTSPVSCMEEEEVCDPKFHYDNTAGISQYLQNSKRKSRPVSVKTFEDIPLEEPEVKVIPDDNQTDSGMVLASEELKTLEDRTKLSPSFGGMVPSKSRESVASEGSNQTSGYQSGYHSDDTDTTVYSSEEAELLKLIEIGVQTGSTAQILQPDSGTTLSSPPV
For test [5], the target named is T2, soluble fusion protein KDR-alkaline phosphatase (AP) (human, UniProt P35968 20-764).
T2 construct: Expressed in stably transfected NIH 3T3 cells; also called KDR-AP; soluble KDR; not shown: alkaline phosphatase (AP)
T2 sequence (P35968 20-764): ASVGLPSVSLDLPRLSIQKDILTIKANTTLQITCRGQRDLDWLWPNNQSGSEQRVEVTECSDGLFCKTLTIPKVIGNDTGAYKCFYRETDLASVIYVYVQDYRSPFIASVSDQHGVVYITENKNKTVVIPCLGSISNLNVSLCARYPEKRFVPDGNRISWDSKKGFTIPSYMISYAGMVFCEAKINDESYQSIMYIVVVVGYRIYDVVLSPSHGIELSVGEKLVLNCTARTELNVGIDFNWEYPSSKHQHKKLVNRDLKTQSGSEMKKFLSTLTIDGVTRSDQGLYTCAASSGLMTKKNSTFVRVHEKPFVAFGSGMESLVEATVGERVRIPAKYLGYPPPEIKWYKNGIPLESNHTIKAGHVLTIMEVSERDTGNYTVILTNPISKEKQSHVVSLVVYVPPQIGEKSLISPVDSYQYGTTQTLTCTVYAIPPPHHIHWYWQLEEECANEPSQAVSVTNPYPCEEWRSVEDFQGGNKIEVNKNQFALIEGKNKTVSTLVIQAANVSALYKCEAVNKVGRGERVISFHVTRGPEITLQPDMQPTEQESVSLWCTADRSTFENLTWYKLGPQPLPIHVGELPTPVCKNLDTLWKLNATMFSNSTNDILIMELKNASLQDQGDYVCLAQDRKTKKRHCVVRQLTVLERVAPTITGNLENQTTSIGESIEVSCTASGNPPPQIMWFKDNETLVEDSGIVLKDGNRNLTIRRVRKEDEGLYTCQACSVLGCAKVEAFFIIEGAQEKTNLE
The test can be described thus: direct binding ELISA on immobilized KDR, detection with anti-E tag antibody-HRP, A450. The method, then: as §2, §3

Test [6] deals with T2, soluble fusion protein KDR-alkaline …. The test can be described thus: BIAcore SPR, KDR-AP immobilized on the chip, antibody injected. As to the method: as §1

B1: scFv 6.12 (scFv, not shown: small tags and cut ends)
scFv: QVKLQQSGAELVKPGASVKLSCTASGFNIKDTYIHWVKQSPEQGLEWIGRIDPPNDNTKYDPKFQGKATITADTSSNTAYMQLRSLTSEDTAVYYCALPPFYFDYWGHGTTVTVSSGGGGSGGGGSGGGGSDIELTQSPKFMSTSVGDRVSVTCKASQNVDTNVAWYQQKPGQSPKALIYSASYRYSGVPDRFTGSGSGTDFTLTISNVQSEDLAEYFCQQYNSFPYTFGGGTKLEIK
modifications: The soluble scFv from pCANTAB 5E carried a C-terminal E tag (detected with anti-E tag) whose letters the patent does not give; it is left out.
notes: VH-(GGGGS)3-VL, expressed from pCANTAB 5E in E. coli
In test [1], B1 returned a dissociation constant (Kd) of 9.8 nM, an off-rate (koff) of 0.00236 s⁻¹ and an on-rate constant (kon) of 241000 M⁻¹ s⁻¹. In addition, the “EC50 (read off the curve)” value in test [2] was roughly 0.6 nM. For the same molecule, the “IC50 (read off the curve)” value in test [3] is roughly 1 nM.

B2: scFv p1C11 (scFv)
scFv: QVKLQQSGAELVGSGASVKLSCTTSGFNIKDFYMHWVKQRPEQGLEWIGWIDPENGDSDYAPKFQGKATMTADSSSNTAYLQLSSLTSEDTAVYYCNAYYGDYEGYWGQGTTVTVSSGGGGSGGGGSGGGGSDIELTQSPAIMSASPGEKVTITCSASSSVSYMHWFQQKPGTSPKLWIYSTSNLASGVPARFSGSGSGTSYSLTISRMEAEDAATYYCQQRSSYPFTFGSGTKLEIK
notes: soluble form made in E. coli; also called KDR-specific scFv p1C11
Turning to B2, the “VEGF-stimulated HUVEC mitogenesis ([3H]-TdR incorporation), IC50” value in test [4] was roughly 2 nM. Moreover, the binding result in test [2] is listed as “no binding (tested: about 50 nM)”. In addition, the “EC50 (read off the curve)” value in test [5] was roughly 0.4 nM. In test [6], this molecule came in with a Kd of 1.68 nM, a koff of 0.000121 s⁻¹ and a kon of 74200 M⁻¹ s⁻¹.
